# In the supplement of paper PMC11316812:
# ± gives the standard deviation of the averaged measurements.
# What was measured:
# hTERT-HMEC = assay: percentage of EdU-negative (G0-arrested) nuclei per well, 72 h; higher = more G0 arrest; conditions: reference: sequence is the full UniProt precursor, the tested protein was the secreted form or ectodomain
# MCF7 = assay: as above; conditions: reference: sequence is the full UniProt precursor, the tested protein was the secreted form or ectodomain
# [1] = protein concentration 0.0225 µM
# [2] = protein concentration 0.01925 µM
# [3] = protein concentration 0.1925 µM
# [4] = protein concentration 0.0175 µM
# [5] = protein concentration 0.012475 µM
# [6] = protein concentration 0.12475 µM
# [7] = protein concentration 0.0217725 µM
# [8] = protein concentration 0.217725 µM
# [9] = protein concentration 0.03054 µM
# [10] = protein concentration 0.3054 µM
# 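Also: secreted proteins added to cultured cells, EdU pulse at the end, nuclei found by Hoechst imaging, EdU status from nuclear versus surrounding ring intensity ratio, PBS as neutral control.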
sequence,measurement,setting,value
MSEEVTYADLQFQNSSEMEKIPEIGKFGEKAPPAPSHVWRPAALFLTLLCLLLLIGLGVLASMFHVTLKIEMKKMNKLQNISEELQRNISLQLMSNMNISNKIRNLSTTLQTIATKLCRELYSKEQEHKCKPCPRRWIWHKDSCYFLSDDVQTWQESKMACAAQNASLLKINNKNALEFIKSQSRSYDYWLGLSPEEDSTRGMRVDNIINSSAWVIRNAPDLNNMYCGYINRLYVQYYHCTYKKRMICEKMANPVQLGSTYFREA [Q5QGZ9],percentage of EdU-negative,hTERT-HMEC; [1],4.07 ± 0.067%
same,percentage of EdU-negative,hTERT-HMEC; protein concentration 0.225 µM,4.99 ± 0.84%
same,percentage of EdU-negative,MCF7; [1],25.2 ± 1.6%
same,percentage of EdU-negative,MCF7; protein concentration 0.225 µM,28.95 ± 0.13%
MAKGFYISKSLGILGILLGVAAVCTIIALSVVYSQEKNKNANSSPVASTTPSASATTNPASATTLDQSKAWNRYRLPNTLKPDSYRVTLRPYLTPNDRGLYVFKGSSTVRFTCKEATDVIIIHSKKLNYTLSQGHRVVLRGVGGSQPPDIDKTELVEPTEYLVVHLKGSLVKDSQYEMDSEFEGELADDLAGFYRSEYMEGNVRKVVATTQMQAADARKSFPCFDEPAMKAEFNITLIHPKDLTALSNMLPKGPSTPLPEDPNWNVTEFHTTPKMSTYLLAFIVSEFDYVEKQASNGVLIRIWARPSAIAAGHGDYALNVTGPILNFFAGHYDTPYPLPKSDQIGLPDFNAGAMENWGLVTYRENSLLFDPLSSSSSNKERVVTVIAHELAHQWFGNLVTIEWWNDLWLNEGFASYVEYLGADYAEPTWNLKDLMVLNDVYRVMAVDALASSHPLSTPASEINTPAQISELFDAISYSKGASVLRMLSSFLSEDVFKQGLASYLHTFAYQNTIYLNLWDHLQEAVNNRSIQLPTTVRDIMNRWTLQMGFPVITVDTSTGTLSQEHFLLDPDSNVTRPSEFNYVWIVPITSIRDGRQQQDYWLIDVRAQNDLFSTSGNEWVLLNLNVTGYYRVNYDEENWRKIQTQLQRDHSAIPVINRAQIINDAFNLASAHKVPVTLALNNTLFLIEERQYMPWEAALSSLSYFKLMFDRSEVYGPMKNYLKKQVTPLFIHFRNNTNNWREIPENLMDQYSEVNAISTACSNGVPECEEMVSGLFKQWMENPNNNPIHPNLRSTVYCNAIAQGGEEEWDFAWEQFRNATLVNEADKLRAALACSKELWILNRYLSYTLNPDLIRKQDATSTIISITNNVIGQGLVWDFVQSNWKKLFNDYGGGSFSFSNLIQAVTRRFSTEYELQQLEQFKKDNEETGFGSGTRALEQALEKTKANIKWVKENKEVVLQWFTENSK,percentage of EdU-negative,hTERT-HMEC; [2],5.56 ± 1.4%
same,percentage of EdU-negative,hTERT-HMEC; [3],7.09 ± 0.27%
same,percentage of EdU-negative,MCF7; [2],21.5 ± 1.1%
same,percentage of EdU-negative,MCF7; [3],23.6 ± 1.2%
MQSVQSTSFCLRKQCLCLTFLLLHLLGQVAATQRCPPQCPGRCPATPPTCAPGVRAVLDGCSCCLVCARQRGESCSDLEPCDESSGLYCDRSADPSNQTGICTAVEGDNCVFDGVIYRSGEKFQPSCKFQCTCRDGQIGCVPRCQLDVLLPEPNCPAPRKVEVPGECCEKWICGPDEEDSLGGLTLAAYRPEATLGVEVSDSSVNCIEQTTEWTACSKSCGMGFSTRVTNRNRQCEMLKQTRLCMVRPCEQEPEQPTDKKGKKCLRTKKSLKAIHLQFKNCTSLHTYKPRFCGVCSDGRCCTPHNTKTIQAEFQCSPGQIVKKPVMVIGTCTCHTNCPKNNEAFLQELELKTTRGKM,percentage of EdU-negative,hTERT-HMEC; [4],4.53 ± 0.15%
same,percentage of EdU-negative,hTERT-HMEC; protein concentration 0.175 µM,15.1 ± 2.2%
same,percentage of EdU-negative,MCF7; [4],26.6 ± 2.9%
same,percentage of EdU-negative,MCF7; protein concentration 0.175 µM,26.7 ± 4.2%
MRGANAWAPLCLLLAAATQLSRQQSPERPVFTCGGILTGESGFIGSEGFPGVYPPNSKCTWKITVPEGKVVVLNFRFIDLESDNLCRYDFVDVYNGHANGQRIGRFCGTFRPGALVSSGNKMMVQMISDANTAGNGFMAMFSAAEPNERGDQYCGGLLDRPSGSFKTPNWPDRDYPAGVTCVWHIVAPKNQLIELKFEKFDVERDNYCRYDYVAVFNGGEVNDARRIGKYCGDSPPAPIVSERNELLIQFLSDLSLTADGFIGHYIFRPKKLPTTTEQPVTTTFPVTTGLKPTVALCQQKCRRTGTLEGNYCSSDFVLAGTVITTITRDGSLHATVSIINIYKEGNLAIQQAGKNMSARLTVVCKQCPLLRRGLNYIIMGQVGEDGRGKIMPNSFIMMFKTKNQKLLDALKNKQC [Q9UKZ9],percentage of EdU-negative,hTERT-HMEC; [5],4.6 ± 0.68%
same,percentage of EdU-negative,hTERT-HMEC; [6],7.45 ± 0.19%
same,percentage of EdU-negative,MCF7; [5],25.27 ± 0.085%
same,percentage of EdU-negative,MCF7; [6],25.1 ± 1.3%
MENPSPAAALGKALCALLLATLGAAGQPLGGESICSARALAKYSITFTGKWSQTAFPKQYPLFRPPAQWSSLLGAAHSSDYSMWRKNQYVSNGLRDFAERGEAWALMKEIEAAGEALQSVHAVFSAPAVPSGTGQTSAELEVQRRHSLVSFVVRIVPSPDWFVGVDSLDLCDGDRWREQAALDLYPYDAGTDSGFTFSSPNFATIPQDTVTEITSSSPSHPANSFYYPRLKALPPIARVTLVRLRQSPRAFIPPAPVLPSRDNEIVDSASVPETPLDCEVSLWSSWGLCGGHCGRLGTKSRTRYVRVQPANNGSPCPELEEEAECVPDNCV [Q9BUD6],percentage of EdU-negative,hTERT-HMEC; [7],4.15 ± 0.79%
same,percentage of EdU-negative,hTERT-HMEC; [8],7.892 ± 0.078%
same,percentage of EdU-negative,MCF7; [7],23.8 ± 0.42%
same,percentage of EdU-negative,MCF7; [8],26.9 ± 1.5%
MKATIILLLLAQVSWAGPFQQRGLFDFMLEDEASGIGPEVPDDRDFEPSLGPVCPFRCQCHLRVVQCSDLGLDKVPKDLPPDTTLLDLQNNKITEIKDGDFKNLKNLHALILVNNKISKVSPGAFTPLVKLERLYLSKNQLKELPEKMPKTLQELRAHENEITKVRKVTFNGLNQMIVIELGTNPLKSSGIENGAFQGMKKLSYIRIADTNITSIPQGLPPSLTELHLDGNKISRVDAASLKGLNNLAKLGLSFNSISAVDNGSLANTPHLRELHLDNNKLTRVPGGLAEHKYIQVVYLHNNNISVVGSSDFCPPGHNTKKASYSGVSLFSNPVQYWEIQPSTFRCVYVRSAIQLGNYK,percentage of EdU-negative,hTERT-HMEC; [9],5.5 ± 0.71%
same,percentage of EdU-negative,hTERT-HMEC; [10],6.07 ± 0.48%
same,percentage of EdU-negative,MCF7; [9],24 ± 3.8%
same,percentage of EdU-negative,MCF7; [10],26.5 ± 1.1%
